Results on four molecules are retold here after article PMC2175290 (The Journal of Cell Biology, 2000).

To fix the notation:
B1: untagged full-length Mex67p (natural protein)
chain: MSGFHNVGNINMMAQQQMQQNRIKISVRNWQNATMNDLINFISRNARVAVYDAHVEGPLVIGYVNSKAEAESLMKWNGVRFAGSNLKFELLDNNGASAGTSDTISFLRGVLLKRYDPQTKLLNLGALHSDPELIQKGVFSSISTQSKMFPAMMKLASTEKSLIVESVNLADNQLKDISAISTLAQTFPNLKNLCLANNQIFRFRSLEVWKNKFKDLRELLMTNNPITTDKLYRTEMLRLFPKLVVLDNVIVRDEQKLQTVYSLPMKIQQFFFENDALGQSSTDFATNFLNLWDNNREQLLNLYSPQSQFSVSVDSTIPPSTVTDSDQTPAFGYYMSSSRNISKVSSEKSIQQRLSIGQESINSIFKTLPKTKHHLQEQPNEYSMETISYPQINGFVITLHGFFEETGKPELESNKKTGKNNYQKNRRYNHGYNSTSNNKLSKKSFDRTWVIVPMNNSVIIASDLLTVRAYSTGAWKTASIAIAQPPQQQASVLPQVASMNPNITTPPQPQPSVVPGGMSIPGAPQGAMVMAPTLQLPPDVQSRLNPVQLELLNKLHLETKLNAEYTFMLAEQSNWNYEVAIKGFQSSMNGIPREAFVQF
B2: His6-Mtr2p (natural protein)
chain: MNTNSNTMVMNDANQAQITATFTKKILAHLDDPDSNKLAQFVQLFNPNNCRIIFNATPFAQATVFLQMWQNQVVQTQHALTGVDYHAIPGSGTLICNVNCKVRFDESGRDKMGQDATVPIQPNNTGNRNRPNDMNKPRPLWGPYFGISLQLIIDDRIFRNDFNGVISGFNYNMVYKPEDSLLKI

The test “His6-Mtr2p” has as its target B2. As to the kind of experiment: AUC.
Test [1] deals with B1. As to the kind of experiment: pull-down.
In test [2] the target is T1, Mex67pΔC1/His6-Mtr2p complex (S. cerevisiae | yeast, UniProt Q99257;P34232).
T1 sequence 1: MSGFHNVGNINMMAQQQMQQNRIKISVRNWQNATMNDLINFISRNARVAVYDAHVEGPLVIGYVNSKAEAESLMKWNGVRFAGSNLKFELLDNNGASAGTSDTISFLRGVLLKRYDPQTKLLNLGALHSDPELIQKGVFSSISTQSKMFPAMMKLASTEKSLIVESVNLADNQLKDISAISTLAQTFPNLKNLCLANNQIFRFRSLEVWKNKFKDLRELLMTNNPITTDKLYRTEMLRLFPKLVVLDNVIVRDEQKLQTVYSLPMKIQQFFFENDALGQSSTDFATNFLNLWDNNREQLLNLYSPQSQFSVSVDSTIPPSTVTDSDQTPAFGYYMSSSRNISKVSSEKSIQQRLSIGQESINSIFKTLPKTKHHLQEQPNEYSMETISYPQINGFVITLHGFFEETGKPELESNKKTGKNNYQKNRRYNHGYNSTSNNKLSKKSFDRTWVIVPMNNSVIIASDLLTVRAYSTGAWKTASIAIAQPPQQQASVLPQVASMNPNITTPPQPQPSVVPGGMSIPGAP
T1 sequence 2: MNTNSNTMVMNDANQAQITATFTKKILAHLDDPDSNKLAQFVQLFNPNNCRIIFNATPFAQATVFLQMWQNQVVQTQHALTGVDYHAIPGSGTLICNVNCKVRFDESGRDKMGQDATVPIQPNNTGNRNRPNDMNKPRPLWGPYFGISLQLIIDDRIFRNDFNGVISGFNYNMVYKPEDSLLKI
As to the kind of experiment: pull-down.

Test [3] deals with T2, Mex67p/His6-Mtr2p complex (S. cerevisiae | yeast, UniProt Q99257;P34232).
T2 sequence 1: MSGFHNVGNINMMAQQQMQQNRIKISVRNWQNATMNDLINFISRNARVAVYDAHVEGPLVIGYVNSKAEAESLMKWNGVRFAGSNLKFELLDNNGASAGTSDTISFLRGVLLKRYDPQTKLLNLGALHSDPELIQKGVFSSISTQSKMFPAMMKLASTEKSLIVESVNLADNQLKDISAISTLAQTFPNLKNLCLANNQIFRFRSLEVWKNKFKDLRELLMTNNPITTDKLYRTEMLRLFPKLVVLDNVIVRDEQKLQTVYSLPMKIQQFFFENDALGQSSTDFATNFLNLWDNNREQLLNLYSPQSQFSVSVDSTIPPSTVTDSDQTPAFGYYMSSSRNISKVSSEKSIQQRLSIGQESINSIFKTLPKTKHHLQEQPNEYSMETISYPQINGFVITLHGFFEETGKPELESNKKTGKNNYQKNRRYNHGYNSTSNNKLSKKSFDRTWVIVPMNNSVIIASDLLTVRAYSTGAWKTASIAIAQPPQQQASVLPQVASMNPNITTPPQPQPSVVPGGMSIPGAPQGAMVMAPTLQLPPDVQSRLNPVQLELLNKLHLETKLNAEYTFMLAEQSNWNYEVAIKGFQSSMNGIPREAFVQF
T2 sequence 2: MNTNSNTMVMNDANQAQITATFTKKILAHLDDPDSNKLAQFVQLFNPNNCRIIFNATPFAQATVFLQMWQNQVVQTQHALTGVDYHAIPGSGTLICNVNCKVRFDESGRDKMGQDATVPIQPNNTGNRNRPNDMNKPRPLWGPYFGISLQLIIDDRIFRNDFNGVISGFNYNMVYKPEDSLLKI
Nature of the test: pull-down.

As for B1, in the test with His6-Mtr2p, the “stoichiometry N” value turned out to be 1. Take B2: the binding result in test [1] is “binds”.

B3: GST-GLFG_(Nup116) (domain or fragment)
chain: YQAGRKFGTSQNGTGTTFNNPQGTTNTGFGIMGNNNSTTSATTGGLFGQKPATGMFGTGTGSGGGFGSGATNSTGLFGSSTNLSGNSAFGANKPATSGGLFGNTTNNPTNGTNNTGLFGQQNSNTNGGLFGQQQNSFGANNVSNGGAFGQVNRGAFPQQQTQQGSGGIFGQSNANANGGAFGQQQGTGALFGAKPASGGLFGQSAGSKAFGMNTNPTGTTGGLFGQTNQQQSGGGLFGQQQNSNAGGLFGQNNQSQNQSGLFGQQNSSNAFGQPQQQGGLFGSKPAGGLFGQQQGASTFASGNAQNNSIFGQNNQQQQSTGGLFGQQNNQSQSQPGGLFGQTNQNNNQPFGQNGLQQPQQNNSLFGAKPTGFGNTSLFSNSTTNQSNGISGNNLQQQSGGLFQNKQQPASGGLFGSKPSNTVGGGLFGNNQVANQNNPASTSGGLFGSKPATGSLFGGTNSTAPNASSGGIFGSNNASNTAATTNSTGLFGNKPVGAGASTSAGGLFGNNNNSSLNNSNGSTGLFGSNNTSQSTNAGGLFQNNTSTNTSGGGLFSQPSQSMAQSQNALQQ
For B3, the binding result in test [2] and in test [3] was “binds” throughout.

B4: GST-FG_(Nup159) (domain or fragment)
chain: QSQSSSTFGAPSFGSSAFKIDLPSVSSTSTGVASSEQDATDPASAKPVFGKPAFGAIAKEPSTSEYAFGKPSFGAPSFGSGKSSVESPASGSAFGKPSFGTPSFGSGNSSVEPPASGSAFGKPSFGTPSFGSGNSSAEPPASGSAFGKPSFGTSAFGTASSNETNSGSIFGKAAFGSSSFAPANNELFGSNFTISKPTVDSPKEVDSTSPFPSSGDQSEDESKSDVDSSSTPFGTKPNTSTKPKTNAFDFGSSSFGSGFSKALESVGSDTTFKFGTQASPFSSQLGNKSPFSSFTKDDTENGSLSKGSTSEINDDNEEHESNGPNVSGNDLTDSTVEQTSSTRLPETPSDEDGEVVEEEAQKSPIGKLTETIKKSANIDMAGLKNPVFGNHVKAKSESPFSAFATNITKPSSTTPAFSFGNSTMNKSNTSTVSPMEEADTKETS
As to B4, the binding result in test [2] and in test [3] was “binds” each time.

For orientation: stoichiometry N means the number of molecules, sites or subunits per partner or assembly.
